Results taken from the Human Domainome abundance scans (Beltran et al. 2025).
± gives the uncertainty stated by the source.

B1: Homeobox expressed in ES cells 1, residues 110 to 165; numbered along this chain, Q9UBX0 (parent)
chain: RPRTAFTQNQIEVLENVFRVNCYPGIDIREDLAQKLNLEEDRIQIWFQNRRAKLKR

Variants of: B1
Test: abundance fitness (aPCA) (normalised: wild type 0, dead -1); higher = more abundant; growth selection in yeast, the domain comes from the species named
Settings: Homo sapiens
D27L showed an abundance fitness of -0.271 ± 0.14.
Variant D27P has an abundance fitness of -0.128 ± 0.22.
In the case of D27M, the abundance fitness is reported as -0.134 ± 0.1.
D27V gave an abundance fitness of -0.314 ± 0.086.
With D27I the abundance fitness was -0.484 ± 0.43.
D27R showed an abundance fitness of 0.137 ± 0.1.
D31K showed an abundance fitness of 0.679 ± 0.15.
D31M showed an abundance fitness of -0.32 ± 0.25.
D31C showed an abundance fitness of -0.468 ± 0.16.
Variant D31A has an abundance fitness of -0.106 ± 0.14.
D31L showed an abundance fitness of -0.411 ± 0.087.
With D31T the abundance fitness was -0.568 ± 0.41.
D31I showed an abundance fitness of 0.221 ± 0.4.
D31N showed an abundance fitness of 0.066 ± 0.15.
D31F gave an abundance fitness of 0.535 ± 0.19.
Variant D31V has an abundance fitness of -0.425 ± 0.09.
Variant D31Y has an abundance fitness of -0.158 ± 0.21.
D31P gave an abundance fitness of -0.675 ± 0.36.
With D31R the abundance fitness was -0.032 ± 0.056.
Variant D31W has an abundance fitness of -0.532 ± 0.2.
Work on L38N yielded an abundance fitness of -0.572 ± 0.27.
Variant L38S has an abundance fitness of -0.259 ± 0.11.
With L38F the abundance fitness was 0.009 ± 0.13.
Variant L38P has an abundance fitness of -0.533 ± 0.25.
L38I gave an abundance fitness of 0.146 ± 0.12.
With L38K the abundance fitness was -0.685 ± 0.42.
L38E showed an abundance fitness of -0.521 ± 0.25.
In the case of L38V, the abundance fitness is reported as 0.061 ± 0.065.
For L38T, the abundance fitness was 0.077 ± 0.074.
In the case of L38D, the abundance fitness is reported as -0.665 ± 0.38.
Variant L38R has an abundance fitness of -0.849 ± 0.1.
Work on L38A yielded an abundance fitness of -0.181 ± 0.14.
In the case of L38Q, the abundance fitness is reported as -0.223 ± 0.39.
Work on L38C yielded an abundance fitness of 0.151 ± 0.11.
L38G showed an abundance fitness of -0.952 ± 0.19.
For L38Y, the abundance fitness was -0.717 ± 0.26.
L38W gave an abundance fitness of -0.885 ± 0.36.
Work on P24R yielded an abundance fitness of -0.995 ± 0.23.
P24Q showed an abundance fitness of -0.314 ± 0.23.
P24K showed an abundance fitness of 0.273 ± 0.27.
P24C showed an abundance fitness of -1.09 ± 0.24.
Work on P24W yielded an abundance fitness of -0.896 ± 0.17.
P24G gave an abundance fitness of -0.641 ± 0.17.
P24E gave an abundance fitness of -0.644 ± 0.34.
For P24M, the abundance fitness was -0.815 ± 0.14.
P24Y showed an abundance fitness of -0.366 ± 0.37.
With P24L the abundance fitness was -0.392 ± 0.25.
Variant P24D has an abundance fitness of -0.606 ± 0.39.
With P24I the abundance fitness was -0.662 ± 0.23.
For P24V, the abundance fitness was -0.793 ± 0.15.
I43L showed an abundance fitness of -0.581 ± 0.16.
I43R showed an abundance fitness of -0.936 ± 0.26.
Work on I43E yielded an abundance fitness of -0.966 ± 0.48.
Variant I43W has an abundance fitness of -0.822 ± 0.16.
For I43T, the abundance fitness was -0.543 ± 0.31.
For I43P, the abundance fitness was -0.912 ± 0.44.
In the case of I43S, the abundance fitness is reported as -0.917 ± 0.25.
I43G showed an abundance fitness of -0.98 ± 0.13.
With I43Q the abundance fitness was -0.796 ± 0.46.
Variant I43K has an abundance fitness of -0.451 ± 0.4.
Variant Q34T has an abundance fitness of 0.046 ± 0.064.
Variant Q34S has an abundance fitness of -0.197 ± 0.13.
Work on Q34H yielded an abundance fitness of -0.129 ± 0.16.
Q34I gave an abundance fitness of -0.106 ± 0.4.
With Q34A the abundance fitness was -0.423 ± 0.17.
Q34R showed an abundance fitness of 0.135 ± 0.095.
Q34L showed an abundance fitness of -0.157 ± 0.12.
With Q34K the abundance fitness was -0.119 ± 0.18.
With Q34D the abundance fitness was -0.234 ± 0.17.
Q34Y showed an abundance fitness of -0.347 ± 0.32.
Variant Q34G has an abundance fitness of -0.168 ± 0.074.
For Q34N, the abundance fitness was -0.216 ± 0.26.
With Q34E the abundance fitness was -0.076 ± 0.087.
L32K showed an abundance fitness of -0.833 ± 0.18.
In the case of L32R, the abundance fitness is reported as -0.886 ± 0.1.
In the case of L32G, the abundance fitness is reported as -0.904 ± 0.12.
L32D gave an abundance fitness of -0.826 ± 0.45.
In the case of L32M, the abundance fitness is reported as -0.689 ± 0.23.
With L32V the abundance fitness was -0.685 ± 0.13.
L32A showed an abundance fitness of -0.832 ± 0.17.
L32T gave an abundance fitness of -0.495 ± 0.24.
In the case of L32S, the abundance fitness is reported as -0.787 ± 0.14.
With L32P the abundance fitness was -0.884 ± 0.46.
L32W gave an abundance fitness of -0.386 ± 0.17.
L32I gave an abundance fitness of -0.363 ± 0.4.
For L32Q, the abundance fitness was -0.487 ± 0.41.
L32F showed an abundance fitness of -0.757 ± 0.24.
With L32E the abundance fitness was -0.824 ± 0.45.
I28W gave an abundance fitness of -0.577 ± 0.17.
I28Y showed an abundance fitness of -0.309 ± 0.23.
I28Q showed an abundance fitness of -0.171 ± 0.14.
For I28G, the abundance fitness was -0.692 ± 0.21.
In the case of I28A, the abundance fitness is reported as -0.089 ± 0.16.
Work on I28S yielded an abundance fitness of -0.505 ± 0.091.
For I28C, the abundance fitness was -0.534 ± 0.41.
In the case of I28M, the abundance fitness is reported as -0.655 ± 0.27.
I28K showed an abundance fitness of -0.852 ± 0.33.
Variant I28P has an abundance fitness of -0.725 ± 0.19.
In the case of I28E, the abundance fitness is reported as -0.176 ± 0.14.
Variant I28L has an abundance fitness of -0.209 ± 0.14.
I28V gave an abundance fitness of 0.045 ± 0.13.
With I28R the abundance fitness was -0.667 ± 0.16.
Variant E40Y has an abundance fitness of -0.57 ± 0.12.
Variant E40W has an abundance fitness of -0.928 ± 0.39.
Variant E40T has an abundance fitness of -0.124 ± 0.11.
E40I showed an abundance fitness of -0.205 ± 0.19.
Variant E40V has an abundance fitness of -0.244 ± 0.13.
In the case of E40F, the abundance fitness is reported as -0.078 ± 0.17.
With E40N the abundance fitness was -0.614 ± 0.31.
Work on E40H yielded an abundance fitness of -0.282 ± 0.17.
E40S showed an abundance fitness of -0.162 ± 0.1.
With E40L the abundance fitness was -0.338 ± 0.13.
E40R showed an abundance fitness of -0.167 ± 0.091.
For E40K, the abundance fitness was -0.611 ± 0.26.
With E40G the abundance fitness was -0.399 ± 0.13.
For E40C, the abundance fitness was -0.348 ± 0.076.
With E40Q the abundance fitness was -0.047 ± 0.14.
Work on E40A yielded an abundance fitness of 0.052 ± 0.091.
Variant E40D has an abundance fitness of -0.119 ± 0.18.
In the case of K35R, the abundance fitness is reported as -0.194 ± 0.075.
With K35H the abundance fitness was -0.651 ± 0.47.
In the case of K35G, the abundance fitness is reported as -0.657 ± 0.14.
Variant K35V has an abundance fitness of -0.694 ± 0.18.
For K35F, the abundance fitness was -0.603 ± 0.28.
Work on K35M yielded an abundance fitness of -0.377 ± 0.1.
With K35Y the abundance fitness was -0.364 ± 0.29.
K35E gave an abundance fitness of 0.05 ± 0.13.
K35Q gave an abundance fitness of -0.197 ± 0.19.
In the case of K35P, the abundance fitness is reported as -1.15 ± 0.3.
In the case of K35N, the abundance fitness is reported as -0.317 ± 0.15.
K35C showed an abundance fitness of -0.515 ± 0.3.
K35I showed an abundance fitness of -0.468 ± 0.18.
In the case of K35W, the abundance fitness is reported as -0.743 ± 0.11.
K35S showed an abundance fitness of -0.487 ± 0.14.
For A33G, the abundance fitness was -0.242 ± 0.079.
Work on A33E yielded an abundance fitness of -0.848 ± 0.29.
In the case of A33S, the abundance fitness is reported as -0.124 ± 0.09.
With A33Y the abundance fitness was -0.396 ± 0.23.
A33Q showed an abundance fitness of 0.36 ± 0.48.
In the case of A33M, the abundance fitness is reported as -0.252 ± 0.33.
For A33W, the abundance fitness was -0.694 ± 0.16.
Variant A33L has an abundance fitness of -0.89 ± 0.1.
A33V showed an abundance fitness of -0.363 ± 0.16.
Work on A33I yielded an abundance fitness of -0.703 ± 0.2.
Variant A33K has an abundance fitness of -0.566 ± 0.33.
For A33C, the abundance fitness was -0.186 ± 0.31.
In the case of I26C, the abundance fitness is reported as -0.218 ± 0.15.
I26Y gave an abundance fitness of -0.159 ± 0.066.
I26F gave an abundance fitness of -0.08 ± 0.2.
With I26A the abundance fitness was -0.057 ± 0.14.
In the case of I26L, the abundance fitness is reported as 0.151 ± 0.12.
I26S showed an abundance fitness of -0.078 ± 0.094.
I26W gave an abundance fitness of -0.138 ± 0.13.
Work on I26K yielded an abundance fitness of 0.305 ± 0.14.
With I26G the abundance fitness was -0.319 ± 0.16.
I26R showed an abundance fitness of 0.002 ± 0.088.
Work on I26D yielded an abundance fitness of -0.297 ± 0.11.
Variant I26P has an abundance fitness of 0.054 ± 0.21.
I26E showed an abundance fitness of -0.19 ± 0.19.
With I26M the abundance fitness was -0.38 ± 0.3.
Work on I26Q yielded an abundance fitness of 0.013 ± 0.14.
In the case of I26N, the abundance fitness is reported as 0.226 ± 0.23.
Variant I26T has an abundance fitness of -0.341 ± 0.14.
In the case of Y23W, the abundance fitness is reported as -0.063 ± 0.091.
Variant Y23T has an abundance fitness of -0.137 ± 0.2.
Variant Y23V has an abundance fitness of -0.546 ± 0.21.
Work on Y23S yielded an abundance fitness of -0.04 ± 0.092.
